Results published in US20240417436A1.
Bridges are numbered along the chain shown (N, C = ends). Primed or numbered codes have the meaning given here. [ ]: non-standard residue; d: D form. Yn3(5) = tyrosine residue modified with an azide-capped PEG9 group (O-(PEG9-azido)-tyrosine); Ygp(5) = O-(8x polyethylene glycol-amino)-tyrosine (Tyr-PEG8-amine); Ygp = O-(8x polyethylene glycol-amino)-tyrosine; Yn3 = O-(9x polyethylene glycol-azido)-tyrosine; PEG9′ = polyethylene glycol spacer of 9 units; 4x polyethylene glycol = not defined here; hSer = N[C@@H](CCO)C(=O)O; Nle = CCCC[C@H](N)C(=O)O

B1: CMP-154 (ligand)
chain: PLGLAGAPTSSSTKKTQLQLEHLLLDLQ[Nle]ILNGIENYKNPKLTR[Nle]L[hSer][Yn3]KF[Ygp][Nle]PKKATELKHLQCLEEELKPLEEVL[hSer]LAQSKNFHLRPRDLISNINVIVLELKGSETTF[hSer]CEYADETATIVEFLNRWITFSQSIISTLT
modifications: linker N-35 via 9x polyethylene glycol
B2: CMP-303 (ligand)
chain: PLGLAGAPTSSSTKKTQLQLEHLLLDLQEILNGINNYKNPKLTR[Nle]L[hSer][Yn3]KF[Ygp][Nle]PKKATELKHLQCLEEELKPLEEVL[hSer]LAQSKNFHLRPRDLISNINVIVLELKGSETTF[hSer]CEYADETATIVEFLNRWITFSQSIISTLT
modifications: linker (positions not given here) via 4x polyethylene glycol; not fully specified (bridges); reading uncertain; also: ring may run through the N-terminus of residue 1, not given here
B3: CMP-161 (ligand)
chain: PLGLAGAPTSSSTKKTQLQLEHLLLDLQ[Nle]ILEGINNYKNPKLTR[Nle]L[hSer][Yn3]KF[Ygp][Nle]PKKATELKHLQCLEEELKPLEEVL[hSer]LAQSKNFHLRPRDLISNINVIVLELKGSETTF[hSer]CEYADETATIVEFLNRWITFSQSIISTLT
modifications: bridge N-32; not fully specified (bridges)
B4: CMP-152 (ligand)
chain: PLGLAGAPTSSSTKKTQLQLEHLLLDLQ[Nle]ILNGINNYKNPKLTR[Nle]L[hSer][Yn3]KF[Ygp][Nle]PKKATELKHLQCLEEELKPLEEVL[hSer]LAQSKNFHLRPRDLISNINVIVLELKGSETTF[hSer]CEYADETATIVEFLNRWITFSQSIISTLT
modifications: linker N-38 via 1,5‑pentanedioic acid‑9x polyethylene glycol linker
B5: CMP-321, MMP2 cleaved molecule (ligand)
chain: SGRVQPLVDAPTSSSTKKTQLQLEHLLLDLQEILNGINNYKNPKLTR[Nle]L[hSer][Yn3(5)]KF[Ygp(5)][Nle]PKKATELKHLQCLEEELKPLEEVL[hSer]LAQSKNFHLRPRDLISNINVIVLELKGSETTF[hSer]CEYADETATIVEFLNRWITFSQSIISTLT
modifications: lactam N-32; also: treated with MMP2 (cleavage site not given here)
B6: CMP-318 (ligand)
chain: SGRVANLVGAPTSSSTKKTQLQLEHLLLDLQEILNGINNYKNPKLTR[Nle]L[hSer][Yn3]KF[Ygp][Nle]PKKATELKHLQCLEEELKPLEEVL[hSer]LAQSKNFHLRPRDLISNINVIVLELKGSETTF[hSer]CEYADETATIVEFLNRWITFSQSIISTLT
modifications: lactam N-32
B7: CMP-320 (ligand)
chain: SGRVAPQPLVDAPTSSSTKKTQLQLEHLLLDLQEILNGINNYKNPKLTR[Nle]L[hSer][Yn3(5)]KF[Ygp(5)][Nle]PKKATELKHLQCLEEELKPLEEVL[hSer]LAQSKNFHLRPRDLISNINVIVLELKGSETTF[hSer]CEYADETATIVEFLNRWITFSQSIISTLT
modifications: lactam N-34
B8: CMP-319, Matriptase cleaved molecule (ligand)
chain: RGRRVANLVGAPTSSSTKKTQLQLEHLLLDLQEILNGINNYKNPKLTR[Nle]L[hSer][Yn3(5)]KF[Ygp(5)][Nle]PKKATELKHLQCLEEELKPLEEVL[hSer]LAQSKNFHLRPRDLISNINVIVLELKGSETTF[hSer]CEYADETATIVEFLNRWITFSQSIISTLT
modifications: lactam N-33; also: treated with matriptase (cleavage site not given here)
B9: CMP-321, Matriptase cleaved molecule (ligand)
chain: SGRVQPLVDAPTSSSTKKTQLQLEHLLLDLQEILNGINNYKNPKLTR[Nle]L[hSer][Yn3(5)]KF[Ygp(5)][Nle]PKKATELKHLQCLEEELKPLEEVL[hSer]LAQSKNFHLRPRDLISNINVIVLELKGSETTF[hSer]CEYADETATIVEFLNRWITFSQSIISTLT
modifications: lactam N-32; also: treated with matriptase (cleavage site not given here)
B10: CMP-302 (ligand)
chain: GPLGLAGAPTSSSTKKTQLQLEHLLLDLQEILNGINNYKNPKLTR[Nle]L[hSer][Yn3]KF[Ygp][Nle]PKKATELKHLQCLEEELKPLEEVL[hSer]LAQSKNFHLRPRDLISNINVIVLELKGSETTF[hSer]CEYADETATIVEFLNRWITFSQSIISTLT
modifications: lactam N-30
B11: CMP-321 (ligand)
chain: SGRVQPLVDAPTSSSTKKTQLQLEHLLLDLQEILNGINNYKNPKLTR[Nle]L[hSer][Yn3(5)]KF[Ygp(5)][Nle]PKKATELKHLQCLEEELKPLEEVL[hSer]LAQSKNFHLRPRDLISNINVIVLELKGSETTF[hSer]CEYADETATIVEFLNRWITFSQSIISTLT
modifications: lactam N-32
B12: CMP-319 (ligand)
chain: RGRRVANLVGAPTSSSTKKTQLQLEHLLLDLQEILNGINNYKNPKLTR[Nle]L[hSer][Yn3(5)]KF[Ygp(5)][Nle]PKKATELKHLQCLEEELKPLEEVL[hSer]LAQSKNFHLRPRDLISNINVIVLELKGSETTF[hSer]CEYADETATIVEFLNRWITFSQSIISTLT
modifications: lactam N-33
B13: CMP-318, MMP2 cleaved molecule (ligand)
chain: SGRVANLVGAPTSSSTKKTQLQLEHLLLDLQEILNGINNYKNPKLTR[Nle]L[hSer][Yn3]KF[Ygp][Nle]PKKATELKHLQCLEEELKPLEEVL[hSer]LAQSKNFHLRPRDLISNINVIVLELKGSETTF[hSer]CEYADETATIVEFLNRWITFSQSIISTLT
modifications: not fully specified (bridges)
B14: CMP-304 (ligand)
chain: PLGLAGAPTSSSTKKTQLQLEHLLLDLQEILNGINNYKNPKLTR[Nle]L[hSer][Yn3]KF[Ygp][Nle]PKKATELKHLQCLEEELKPLEEVL[hSer]LAQSKNFHLRPRDLISNINVIVLELKGSETTF[hSer]CEYADETATIVEFLNRWITFSQSIISTLT
modifications: bridge N-29 via PEG9′
B15: CMP-318, Matriptase cleaved molecule (ligand)
chain: SGRVANLVGAPTSSSTKKTQLQLEHLLLDLQEILNGINNYKNPKLTR[Nle]L[hSer][Yn3(5)]KF[Ygp(5)][Nle]PKKATELKHLQCLEEELKPLEEVL[hSer]LAQSKNFHLRPRDLISNINVIVLELKGSETTF[hSer]CEYADETATIVEFLNRWITFSQSIISTLT
modifications: lactam N-32; also: treated with matriptase, cleavage site not given here
B16: CMP-320, MMP2 cleaved molecule (ligand)
chain: SGRVAPQPLVDAPTSSSTKKTQLQLEHLLLDLQEILNGINNYKNPKLTR[Nle]L[hSer][Yn3(5)]KF[Ygp(5)][Nle]PKKATELKHLQCLEEELKPLEEVL[hSer]LAQSKNFHLRPRDLISNINVIVLELKGSETTF[hSer]CEYADETATIVEFLNRWITFSQSIISTLT
modifications: lactam N-34; also: treated with MMP2 (cleavage site not given here)
B17: CMP-320, Matriptase cleaved molecule (ligand)
chain: SGRVAPQPLVDAPTSSSTKKTQLQLEHLLLDLQEILNGINNYKNPKLTR[Nle]L[hSer][Yn3(5)]KF[Ygp(5)][Nle]PKKATELKHLQCLEEELKPLEEVL[hSer]LAQSKNFHLRPRDLISNINVIVLELKGSETTF[hSer]CEYADETATIVEFLNRWITFSQSIISTLT
modifications: lactam N-34; also: treated with matriptase (cleavage site not given here)
B18: CMP-159 (ligand)
chain: PLGLAGAPTSSSTKKTQLQLEHLLLDLE[Nle]ILNGINNYKNPKLTR[Nle]L[hSer][Yn3]KF[Ygp][Nle]PKKATELKHLQCLEEELKPLEEVL[hSer]LAQSKNFHLRPRDLISNINVIVLELKGSETTF[hSer]CEYADETATIVEFLNRWITFSQSIISTLT
modifications: linker N-28 via 4x polyethylene glycol; reading uncertain
B19: CMP-319, MMP2 cleaved molecule (ligand)
chain: RGRRVANLVGAPTSSSTKKTQLQLEHLLLDLQEILNGINNYKNPKLTR[Nle]L[hSer][Yn3(5)]KF[Ygp(5)][Nle]PKKATELKHLQCLEEELKPLEEVL[hSer]LAQSKNFHLRPRDLISNINVIVLELKGSETTF[hSer]CEYADETATIVEFLNRWITFSQSIISTLT
modifications: lactam N-33; also: treated with MMP2 (cleavage site not given here)

Each binder was assayed against IL-2 receptor βγ complex (CD122/CD132) on HEK-Blue IL-2Rβγ reporter cells (UniProt P14784) (assay: cell-based or functional assay).
Chain of IL-2 receptor βγ complex (CD122/CD132) on HEK-Blue IL-2Rβγ reporter cells (P14784 27-551 limits assumed, chain 1 of 2): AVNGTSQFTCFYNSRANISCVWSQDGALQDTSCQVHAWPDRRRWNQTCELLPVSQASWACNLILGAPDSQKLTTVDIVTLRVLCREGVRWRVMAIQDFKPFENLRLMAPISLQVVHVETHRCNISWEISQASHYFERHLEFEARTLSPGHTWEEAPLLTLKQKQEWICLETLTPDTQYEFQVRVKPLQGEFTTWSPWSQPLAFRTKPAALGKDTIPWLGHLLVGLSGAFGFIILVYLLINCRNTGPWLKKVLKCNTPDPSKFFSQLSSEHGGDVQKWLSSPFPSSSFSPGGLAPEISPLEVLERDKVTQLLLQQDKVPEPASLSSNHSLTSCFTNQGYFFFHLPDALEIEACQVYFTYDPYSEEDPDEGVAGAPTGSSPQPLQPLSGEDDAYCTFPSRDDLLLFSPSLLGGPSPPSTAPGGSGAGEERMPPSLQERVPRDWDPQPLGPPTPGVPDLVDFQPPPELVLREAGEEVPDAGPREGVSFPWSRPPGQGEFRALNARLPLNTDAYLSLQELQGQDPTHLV
Chain of IL-2 receptor βγ complex (CD122/CD132) on HEK-Blue IL-2Rβγ reporter cells (P31785 23-369 limits assumed, chain 2 of 2, further chain): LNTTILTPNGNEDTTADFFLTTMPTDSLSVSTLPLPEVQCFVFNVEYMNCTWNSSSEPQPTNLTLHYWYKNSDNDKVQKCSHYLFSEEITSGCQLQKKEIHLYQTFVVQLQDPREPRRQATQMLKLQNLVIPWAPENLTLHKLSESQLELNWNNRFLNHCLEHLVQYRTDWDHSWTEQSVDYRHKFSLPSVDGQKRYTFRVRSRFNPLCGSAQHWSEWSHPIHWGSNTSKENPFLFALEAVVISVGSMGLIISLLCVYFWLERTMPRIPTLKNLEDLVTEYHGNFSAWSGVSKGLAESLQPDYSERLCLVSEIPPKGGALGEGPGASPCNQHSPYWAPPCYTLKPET

| Binder | Average EC50, HEK-Blue IL-2R (CD122+, CD132+) reporter assay [nM] |
| --- | --- |
| B1 | 0.106 |
| B2 | 0.521 |
| B3 | 0.168 |
| B4 | 0.0597 |
| B5 | 0.181 |
| B6 | 3.37 |
| B7 | 0.775 |
| B8 | 0.0507 |
| B9 | 4.22 |
| B10 | 0.436 |
| B11 | 4.2 |
| B12 | 1.05 |
| B13 | 0.0259 |
| B14 | 0.34 |
| B15 | 2.47 |
| B16 | 0.0392 |
| B17 | 10.8 |
| B18 | 0.192 |
| B19 | 0.049 |

Each binder was assayed against IL-2 receptor βγ complex on human cells (pan T cells, PBMC NK cells, NK92 PD1+ cells) (human) (UniProt P14784) (assay: cell-based or functional assay).
Chain of IL-2 receptor βγ complex on human cells (pan T cells, PBMC NK cells, NK92 PD1+ cells) (human) (P14784 27-551, chain 1 of 2): as the sequence (P14784 27-551 limits assumed, chain 1 of 2) above
Chain of IL-2 receptor βγ complex on human cells (pan T cells, PBMC NK cells, NK92 PD1+ cells) (human) (P31785 23-369, chain 2 of 2, further chain): as the sequence (P31785 23-369 limits assumed, chain 2 of 2, further chain) above

| Binder | Average EC50, pSTAT5 assay in NK cells [nM] |
| --- | --- |
| B5 | 2.94 |
| B6 | 37.4 |
| B7 | 13.2 |
| B8 | 0.804 |
| B9 | 65.2 |
| B11 | 55.1 |
| B12 | 7.72 |
| B13 | 0.388 |
| B15 | 33.7 |
| B16 | 0.571 |
| B17 | 15.7 |
| B19 | 0.713 |
